This data set is described as follows: yeast display, Sf9 membrane polyspecificity reagent, FACS + sequencing; frameworks hold sequencing errors. The method, boiled down:
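Galactose induction of a Saccharomyces cerevisiae BJ5465 synthetic nanobody display library ran 36–48 hours. The cells were then stained for 1 hour at 4 °C with 10% biotinylated, detergent-solubilized Sf9 membrane reagent, pulled down on streptavidin microbeads and FACS-sorted into low and high (top ~1%) gates on expression and reagent-binding fluorescence. Labels for polyreactivity follow the gate of origin.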
“QVQLVESGGGLVQAGGSLRLSCAASGFIFRKYGMGWYRQAPGKERELVAAIRFTGGSTRYADSVKGRFTISRDNAKNTVYLQMNSLKPEDTAVYYCNADRVYVRGRFTYDYWGQGTQVTVSS”: the “polyreactivity (PSR sort gate)” value was “low polyreactivity”. As to “QVQLVESGGGLVQAGGSLRLSCAASGFIFRNYAMGWNTQAPGKERELVAAISRSVGRTYYADSVKGRFTISRDNAKNTVYLQMNSLKPEDPAVYYCAVHIYGIGFYFTYLYVNGYDYWGQGTQVTVSS”, the “polyreactivity (PSR sort gate)” value is on record as “high polyreactivity”.

Consider “QVQLVESGGGLVQAGGSLRLSCAASGFIFRNYAMGWYRQAPGKERELVAAISRGGRTNYADSVKGLFTISRDNAKNTVYLQMNSLKPEDTAVYYCNAVTVGLYDYWGQVTQVTVSS”, for which the “polyreactivity (PSR sort gate)” value is recorded as “high polyreactivity”. As for “QVQLVESGGGLVQAGGSLRLSCAASGFIFRQYAMGWYRQAPGKERELVAAISRSGGSTYYADSVKGRFTISRDNAKNTVYLQMNSLKPEDTAVYYCAVRYNQWYLNFGRYDYWGQGTQVTVSS”, the entry is “high polyreactivity”. For the sequence “QVQLVESGGGLVQAGGSLRLSCAASGFIFRRNAMGWYRPAPGKERELVAAITKSGGSTYYADSVKGRFTISRDNAKNTVYLQMNSLKPEDTAVYYCAAPYSAKELYYRMDYWGQGTQVTVSS”, the “polyreactivity (PSR sort gate)” value is listed as “high polyreactivity”.

For the sequence “QVQLVESGGGLVQAGGSLRLSCAASGFIFRRYAMGWYRQAPGKERELVAAITAGGGNTYYADSVKGRFTISRDNAKNTVYLQMHSLKPEDTAVYYCAAAGRWYYHGYNYWGQGTQVTVSS”, the “polyreactivity (PSR sort gate)” value is “high polyreactivity”. As for “QVQLVESGGGLVQAGGSLRLSCAASGFIFRRYAMGWYRQAPGKERELVASISWSGGSTYYADSVKGRFTISRDNAKNTVYLQMNSLKPEDTAVYYCAKGGYYSRYYSYGYWGQGTQVTVSS”, the entry is “high polyreactivity”; as for “QVQLVESGGGLVQAGGSLRLSCAASGFIFRRYSMGRYRQAPAKERELVAASTSGGGRTYYADSVKGRFTISRDNAKNTVYLQMNSLKPEDTAVYYCARVQRGDYDYWGQGTQVTVSS”, “high polyreactivity”; as for “QVQLVESGGGLVQAGGSLRLSCAASGFIFRRYVMGWYRQAPGKERELVAAISTSGGSTYYADSVKGRFTISRDNAKNSVYLQMNSLKPADTAVYYCNKAVGVTGFDYWGQGTEVTVSS”, “high polyreactivity”. As for “QVQLVESGGGLVQAGGSLRLSCAASGFIFRSYAMGWYRQAPGKERELVAAISSSGGRTYYADSVKGRFTISRDNAKNTVYLQMNSLKPEDTAVYYCATSLYTDNSWDNYWGQGTQVTVSS”, the entry is “high polyreactivity”; as for “QVQLVESGGGLVQAGGSLRLSCAASGFIFRTNAMGRYRQAPGKEREFVAAIRWSGGSTYYADSVKGRFTISRDNAKKTVYLQMNSLKPEDTAVYYCAAEIYLSTYFYPHSIYDYWGQGTQVTVSS”, “high polyreactivity”. As for “QVQLVESGGGLVQAGGSLRLSCAASGFIFRTYAMGWYRQAPGKERDLVAAISWRGGSTYYADSVKGRFTISRDNAKNTVYLQMNSLKPEDTAVYYCAKDTTRGVYRSWPKDMDYWGQGTQVTVSS”, the entry is “low polyreactivity”; as for “QVQLVESGGGLVQAGGSLRLSCAASGFIFRVYAMGWYRQAPGKERELVAAITRNGGSTYYADSVKGRFTISRDNAKNTVYLQMNSLKPEDTAVYYCATVYSFGQNRDYWGQGTQVTVSS”, “high polyreactivity”. “QVQLVESGGGLVQAGGSLRLSCAASGFIFRWYAMGWYRQAPGKERELVAAISRSGDSTYYADSVKGRFTISRDNAKNTVYLQMNSLKPEDTAVYYCAADDRYYTYGYDYWGQGTQVTVSS”: the “polyreactivity (PSR sort gate)” value is reported as “low polyreactivity”. Regarding “QVQLVESGGGLVQAGGSLRLSCAASGFIFRYNAMGWYRQAPGKERELVAVITSGGRTYYADSVKGRFTISRDNAKNTVYLQMNSLKPEDTAVYYCNADSRHRRNYDYWGQGTQVTVSS”, the “polyreactivity (PSR sort gate)” value is listed as “high polyreactivity”. Next, “QVQLVESGGGLVQAGGSLRLSCAASGFIFRYYAMGWSRQAPGIEMELVAAINASGGRTYYADSVKGRFTISRDNARNTVYLQMNSLKPEDTAVYYCAAYRSYQTFDYWGQGTQVTVSS”: “high polyreactivity”; “QVQLVESGGGLVQAGGSLRLSCAASGFIFRYYAMGWSRQAPGKERELVAAITSGGRTSYADSVKGRFTISRDNAKNTVYLQMNSLKPEDTAVYYCAKDSYRQRYGSMEYWGQGTQVTVSS”: “high polyreactivity”.

As for “QVQLVESGGGLVQAGGSLRLSCAASGFIFRYYAMGWYRQAPGKERELVAAIRGNSGNTYYADSVKGRFTISRDNAKNTVYLQMNSLKPEDTAVYYCAKPFNIWGQGTQVTVSS”, the “polyreactivity (PSR sort gate)” value is recorded as “high polyreactivity”. In the case of “QVQLVESGGGLVQAGGSLRLSCAASGFIFRYYAMGWYRQAPGKERELVAAISKRGGRTYYADSVKGRFTISRDNAKNTVYLQMNSLKPEDTAVYYCAAGVGTVAPDMDYWGQGTQVTVSS”, the “polyreactivity (PSR sort gate)” value was “high polyreactivity”. On to “QVQLVESGGGLVQAGGSLRLSCAASGFIFRYYAMGWYRQAPGKERELVAAISRIGGSSYYADSVKGRFTISRDNAKNTVYLQMNSPKPEVTAVYYCAVAEGYYPAYLRDYWGQGTQVTVSS”, for which the “polyreactivity (PSR sort gate)” value was “high polyreactivity”. Next, “QVQLVESGGGLVQAGGSLRLSCAASGFIFRYYAMGWYRQAPGKERELVAAISSRGSTYYADSVKGRFTISRDNAKNTVYLQMNRLKPEYTALYYCAARGGYRLRYIPYVRYDYWGQGTQLTVSS”: “high polyreactivity”.

Consider “QVQLVESGGGLVQAGGSLRLSCAASGFIFRYYAMGWYRQAPGKERELVAAISWRGGTTYYADSVKGRFTFSRDNAKNTVYLQMNSLKPDDTAVYYCAADWQWDLGPYIYQVEYWGQGTQVTVSS”, for which the “polyreactivity (PSR sort gate)” value is on record as “high polyreactivity”. “QVQLVESGGGLVQAGGSLRLSCAASGFIFRYYAMGWYRQAPGKERELVAAISWSGGSTYYADSVKGRFTISRDNAKNTVYLQMNSLKPEDTAVYYCNARYKYLFTVSRYDYWGQGTQVTVSS”: the “polyreactivity (PSR sort gate)” value is given as “high polyreactivity”.

Turning to “QVQLVESGGGLVQAGGSLRLSCAASGFIFRYYAMGWYRQAPGKERELVADISWSGGSTHYADSVKGRFTISRDNAKNTVYLQMNSQKPEDTAVYYCAADPTLYSSWSTYYRSNYWGQGTQVTVSS”, the “polyreactivity (PSR sort gate)” value is on record as “high polyreactivity”.

“QVQLVESGGGLVQAGGSLRLSCAASGFIFRYYAMGWYRQAPGKERELVATISSGGGTHYADSVKGRFTISRDNAKNTVYLQMNSLKPEDTAVYYCNARGYRRLRTRVDYWGQGTQVTVSS”: the “polyreactivity (PSR sort gate)” value is “high polyreactivity”. In the case of “QVQLVESGGGLVQAGGSLRLSCAASGFIFRYYTMGWYRQAPGKERELVAAISSGTSTHYADSVKGRYTISRNNAKNTVNLQMNSLKPEDTAVYYCAADLPYWYNRKPIFPYYYWGQGTQVTVSS”, the “polyreactivity (PSR sort gate)” value is “high polyreactivity”. Turning to “QVQLVESGGGLVQAGGSLRLSCAASGFIFSFNAMGWYRQAPGKERELVAAISRRGGRTYYADSVKGRFTISRDNAKNTVYLQMNSLKPEDTAVYYCAAQGRDSTPHGYWGQGTQVTVSS”, the “polyreactivity (PSR sort gate)” value was “high polyreactivity”. “QVQLVESGGGLVQAGGSLRLSCAASGFIFSHYAMGWYRQAPGKERELVAAISRNGGSTYYADSVKGRFTISRDNAKNTVYLQMNSLKPEDTAVYYCAVDVSEWYHYDLYYWYYYWGQGTQVTVSS”: the “polyreactivity (PSR sort gate)” value is recorded as “high polyreactivity”. Next, “QVQLVESGGGLVQAGGSLRLSCAASGFIFSKNAMGWYRQAPGKERELVARITRRVGSTYYADSVKGRFTISRDNAKITVYLQMNSLKPEDTAVYYWAAVVHIQRSTRDYWGQGTQVTVSS”: “high polyreactivity”; “QVQLVESGGGLVQAGGSLRLSCAASGFIFSKYAMGWYRQAPGKERELVAAITFSGGSTYYADSVKGRFTISRDNAKNTVYLQMNSLKPEDTAVYYCNAEGSYPDVSPVLGYDYWGQGTQVTVSS”: “low polyreactivity”; “QVQLVESGGGLVQAGGSLRLSCAASGFIFSKYAMGWYRQAPGKERELVAAITSGGSTYYADSVKGRFTISRDNAKNTVYLQMNSLKPEDTAVYYCAADSYVPNLNYDYWGQGTQVNVSS”: “low polyreactivity”.

With “QVQLVESGGGLVQAGGSLRLSCAASGFIFSKYAMGWYRQAPGKERELVASISTSGGSTYYADSVKGRFTISRDNAKNTVYLQMNSLKPEDTAVYYCAVASRSHGYKRAYYYWGQGTQVTVSS”, the “polyreactivity (PSR sort gate)” value is recorded as “high polyreactivity”. Next, “QVQLVESGGGLVQAGGSLRLSCAASGFIFSLYAMGWYRQAPGKERELVAAISKRGGSTNYADSVKGRFTISRDNAKNTVYLQMNSLKPEDTAVYYCAKARPGFLYDHWGQGTQVTVSS”: “high polyreactivity”; “QVQLVESGGGLVQAGGSLRLSCAASGFIFSLYAMGWYRQAPGKERELVGAITRSGGSTYYADSVKGRFTISRDNAKNTVYLQMNSLKAEDTAVYYCAVSACYHYNYWGQGTQVTVSS”: “high polyreactivity”. In the case of “QVQLVESGGGLVQAGGSLRLSCAASGFIFSNAMGWYRQAPGKERELVAAISRSGGSTYYADSVKGRFTISRDNAKNTVYLQMNSLKPEDTAVYYCGARSYPRSPVRYDYWGQGTQVTVSS”, the “polyreactivity (PSR sort gate)” value is “high polyreactivity”. For “QVQLVESGGGLVQAGGSLRLSCAASGFIFSNNAMGWYRQAPGKERELVAVINGGGSTYYADSVKGRFTISRDNAKNTVYLQMNSLKPEDTAFYYCARKSWPKERRVDPGYDYWGQGTQVTVSS”, the “polyreactivity (PSR sort gate)” value is “low polyreactivity”. As for “QVQLVESGGGLVQAGGSLRLSCAASGFIFSPYDMGWYRQAPGKERELVAAISWRTGSTYYADSVKGRFTISRDNAKNTVYLQMNSLKPEDTAVYYCAARFIWSSYGRYDYWGQGTQVTVSS”, the entry is “high polyreactivity”; as for “QVQLVESGGGLVQAGGSLRLSCAASGFIFSQYTMGWYRQAPGKERELVAAISFSDSSTFYADSVKGRFTISRDNAKNTVYLQMNSLKPEDTAVYYCAAEWGYRQRYFYATGGYWGQGTQVTVSS”, “low polyreactivity”; as for “QVQLVESGGGLVQAGGSLRLSCAASGFIFSRNAMGWYRQAPGKERELVARISRSGGRTYYADSVKGRFTISRDNAKNTVYLLMNSLKPEDTAVYYCATDHVRQSPYDYWGQGTQVTVSS”, “high polyreactivity”. In the case of “QVQLVESGGGLVQAGGSLRLSCAASGFIFSRYAMGWYRQAPGKEREFVAANSWSGGRTYYADSVKGRFTISRDNAKNTVYLQMNSLKPEDTAVYFCAARGYYPARHGTGGYWGQGTQVTVSS”, the “polyreactivity (PSR sort gate)” value is on record as “high polyreactivity”.

These data come from the nanobody polyreactivity screen of Harvey et al. (2022).
